Assay results reported in patent US20210403538A1.

Key:
[1] = target: Jurkat-EBOV GPCL (Zaire ebolavirus (EBOV), Makona)
[2] = target: Jurkat-EBOV GP (Zaire ebolavirus (EBOV), Makona)

Sequence of rEBOV-520 LALA (antibody) (VH): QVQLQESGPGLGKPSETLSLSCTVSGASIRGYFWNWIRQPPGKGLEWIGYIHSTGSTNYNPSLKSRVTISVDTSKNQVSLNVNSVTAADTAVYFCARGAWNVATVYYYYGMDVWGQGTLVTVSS
Sequence of rEBOV-520 LALA (antibody) (VL): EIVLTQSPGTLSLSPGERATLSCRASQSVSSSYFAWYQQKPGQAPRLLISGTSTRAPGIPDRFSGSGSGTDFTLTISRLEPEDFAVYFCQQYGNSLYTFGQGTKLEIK

Substance	fold decrease in binding [1] [fold]	fold increase in binding [2] [fold]
MR72 (antibody)	2.8	
rEBOV-520 LALA (antibody)		< 4.6
